In PMC7116788 (Nature microbiology, 2021):
Where two headings read alike, the source gives them in different places.

Experiments:
cryo-EM structure [1] = biological target: the molecule itself; assay: cryo-EM structure
cryo-EM structure [2] = biological target: the molecule itself; assay: cryo-EM structure; remark: listed apart in the source

B1: PorM (Porphyromonas gingivalis ATCC 33277) (natural protein, UniProt B2RLE8 1-516, looked up)
chain: MAVGSNGNANRQKMINLMYLVFIAMMALNVSSEVLDGFDKVDKSLTSSIDGSDKRNNLVLSELNTAYRTNPEKVKVWYERSLVLQKEADSLCTFIDDLKLAIARESDGKDAKVNDIRRKDNLDASSVVMLNPINGKGSTLRKEVDKFRELVATLMTDKAKLKLIEQALNTESGTKGKSWESSLFENMPTVAAITLLTKLQSDVRYAQGEVLADLVKSVDVGDYRVNSITAQVIPQSQIVMSGDTYKANIVLSSVDTTQRPDVFVNGKLLSPENMGLFTATAGAPGTYPVKGYIEMMGNDGVKIRRDFESEYFVTEPMASVAPTMMNVLYAGIDNPINIAVPGVAQQNVSATINNGTLTRRGNLWIARPTKVGSEAIISVTAQSGGRTIQMAKTTLRVRALPDPLPYIEYKDVQGNTKRFKGGRLGKREILAAGGIKAALDDDLLEVNYTVVKFQLVFYDSMGNSIPEVSDGASFSERQKRQIQNLGKGKRFYVTEVIARGPDGIERKIPAIEVIVN
In the case of B1, the “stoichiometry N” value (cryo-EM structure [1]) is reported as 2.

B2: PorL (Porphyromonas gingivalis ATCC 33277) (natural protein, UniProt B2RLE9 1-309, looked up)
chain: MGHYRRYKNILEMYLASHKGRRLLNIVYSWGAAVVILGALFKLLHLPMGNEMLFVGMITEFLVFFISGFEKPAMEYHWEEVFPELDSKNPMDRREMEQRREYLREKAKEAAAYAERPSSVRLASASLGTQPQEQPKPATPFQSQLTGILPEEQIQRLSEGIDKLAEAGEQLARIGRTAAAMTESYEQMQADQEGLRLNSQSYIQQMESLSRNISGLNTIYEIQLKGISSQIDTIDRINRGLAHIRDMYDNSVIDSSSFRNENERMARQLTQLNEVYARLLQALTTNVGLPGMPGNFGASNPSSSGSSPL
B2: binds (cryo-EM structure [1]).

B3: GldL (Flavobacterium johnsoniae) (natural protein)
chain: MALLSKKVMNFAYGMGAAVVIVGALFKITHFEIGPLTGTVMLSIGLLTEALIFALSAFEPVEDELDWTLVYPELANGQARKKEAKAETATDAQGLLSQKLDAMLKEAKVDGELMASLGNSIKNFEGAAKAISPTVDSIAGQKKYAEEMSMAAAQMESLNSLYKVQLESASRNAQANSEIAENAAKLKEQMASMTANIASLNSVYGGMLSAMSNKG
In the case of B3, the “stoichiometry N” value (cryo-EM structure [2]) is reported as 5.
